Measurements reported in paper PMC6219635.

Experiments:
Assay in all cases: SDS-PAGE under non-reducing conditions
[1] = target: FG-IncD M (FLAG-tagged TM region of IncD) (Chlamydia trachomatis)
[2] = target: FG-IncD ΔC (aa 1-91) (Chlamydia trachomatis)
[3] = target: FG-IncD ΔN (38-146) (Chlamydia trachomatis)

For “FG-IncD M (FLAG-tagged TM region of IncD) (domain or fragment)”, the stoichiometry N [1] was 2.
“FG-IncD ΔC (aa 1-91) (domain or fragment)” showed a stoichiometry N [2] of 2.
For “FG-IncD ΔN (38-146) (domain or fragment)”, the stoichiometry N [3] was 2.
